Assay results from paper PMC9739371, “Deciphering the Binding of the Nuclear Localization Sequence of Myc Protein to the Nuclear Carrier Importin α3” (International Journal of Molecular Sciences, 2022).
Several values for one entry are separate records, joined by “and”; a condition that tells them apart may be missing. Equal entries are not always repeated.

Legend:
[1] = target: T1, IBB-depleted species of importin α3 (residues 64-521 of the intact protein) (human, UniProt O00629 64-521); assay: BLI; BLItz system; His-tagged Impα3 or ΔImpα3 immobilised on His-tag biosensors at 0.5 µM; NLS-Myc 1 to 7 µM in solution; 10x kinetics buffer of the manufacturer; 25 °C; kon and koff from a pseudo-first-order plot; conditions: both partners purified
T1 construct: also called ΔImpα3; truncated species of Impα3; source: purified as previously described [18,19,20]
T1 sequence (looked up): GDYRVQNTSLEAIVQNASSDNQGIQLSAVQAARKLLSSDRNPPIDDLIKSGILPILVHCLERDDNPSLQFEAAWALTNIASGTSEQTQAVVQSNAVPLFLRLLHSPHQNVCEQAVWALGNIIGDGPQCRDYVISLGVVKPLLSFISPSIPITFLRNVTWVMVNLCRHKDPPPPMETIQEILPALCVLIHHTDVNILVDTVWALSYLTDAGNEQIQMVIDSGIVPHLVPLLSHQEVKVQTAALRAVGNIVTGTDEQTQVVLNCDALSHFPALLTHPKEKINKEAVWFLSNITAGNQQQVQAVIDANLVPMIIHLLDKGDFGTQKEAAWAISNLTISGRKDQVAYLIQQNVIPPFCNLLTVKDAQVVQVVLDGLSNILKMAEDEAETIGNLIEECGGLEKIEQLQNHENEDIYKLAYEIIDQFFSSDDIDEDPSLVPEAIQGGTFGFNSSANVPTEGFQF

[2] = target: T2, human importin α3 isoform (residues 1-521) (human, UniProt O00629 1-521); assay: as above; conditions: both partners purified
T2 construct: importin α3 (Impα3), human, residues 1-521, with the N-terminal IBB domain; also called Impα3; source: purified as previously described [18,19,20]
T2 sequence (looked up): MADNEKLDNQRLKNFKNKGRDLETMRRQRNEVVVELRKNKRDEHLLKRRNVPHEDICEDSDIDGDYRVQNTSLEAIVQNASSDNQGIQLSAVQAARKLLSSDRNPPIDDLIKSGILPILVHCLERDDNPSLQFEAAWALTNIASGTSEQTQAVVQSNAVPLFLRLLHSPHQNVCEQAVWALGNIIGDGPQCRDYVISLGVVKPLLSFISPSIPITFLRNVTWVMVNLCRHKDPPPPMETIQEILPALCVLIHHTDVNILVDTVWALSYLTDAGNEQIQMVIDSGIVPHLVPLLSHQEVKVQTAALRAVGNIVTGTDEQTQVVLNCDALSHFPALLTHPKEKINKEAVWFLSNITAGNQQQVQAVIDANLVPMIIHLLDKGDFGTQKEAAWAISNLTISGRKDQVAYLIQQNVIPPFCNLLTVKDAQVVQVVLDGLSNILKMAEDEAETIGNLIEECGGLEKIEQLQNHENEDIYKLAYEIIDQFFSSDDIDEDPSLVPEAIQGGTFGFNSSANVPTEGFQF

B1: NLS-Myc peptide (Ala310-Asn339 of human c-Myc) (peptide)
peptide: AAPPSTRKDYPAAKRVKLDSVRVLRQISNN
notes: human c-Myc, residues Ala310-Asn339: canonical NLS Pro320-Asp328 with the flanking residues of native Myc; also called the peptide; source: synthetic peptide, produced by NZYtech (Lisbon, Portugal), purity larger than 95%
In the case of B1, the Kd [1] is reported as 60 ± 30 nM and the Kd [2] is reported as 500 nM and 600 nM.
